According to patent US20040230039A1 (YEDA RESEARCH AND DEVELOPMENT, published 2004):
Where a chain is given by its changes, count along the chain named. In names and notes the source's numbering stands.

T1: Acetyl-Asp-Glu-Val-Asp-a-(4-Methyl-Coumaryl-7-Amide)
T1 sequence: DEVD

T2: Acetyl-Tyr-Val-Ala-Asp-AMC
T2 sequence: YVAD

T3: TRADD (human, UniProt Q15628 1-312, limits assumed)
T3 construct: Gal4 hybrid in yeast
T3 sequence (looked up): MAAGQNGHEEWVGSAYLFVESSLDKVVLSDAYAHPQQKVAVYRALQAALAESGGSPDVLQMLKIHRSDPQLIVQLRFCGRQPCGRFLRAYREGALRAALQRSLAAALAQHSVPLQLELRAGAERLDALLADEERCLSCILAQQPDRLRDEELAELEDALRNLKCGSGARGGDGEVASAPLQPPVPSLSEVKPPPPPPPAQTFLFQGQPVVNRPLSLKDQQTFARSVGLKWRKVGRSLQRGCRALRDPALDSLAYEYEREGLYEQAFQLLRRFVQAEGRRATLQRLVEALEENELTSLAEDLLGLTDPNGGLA

T4: MORT-1 (FADD), human, full-length (human), Q13158
T4 chain: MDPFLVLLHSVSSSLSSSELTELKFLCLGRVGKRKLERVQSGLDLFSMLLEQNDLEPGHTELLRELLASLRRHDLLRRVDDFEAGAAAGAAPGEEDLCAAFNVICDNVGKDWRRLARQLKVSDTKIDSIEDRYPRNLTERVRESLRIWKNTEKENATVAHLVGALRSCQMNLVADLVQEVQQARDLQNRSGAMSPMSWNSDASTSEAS

T5: FLAG-MORT-1 (UniProt Q13158 1-208)
T5 construct: Expressed and 35S-labeled in HeLa cells; yielded proteins of about 27, 28, 32 and 34 kD; also called MORT-1-FLAG fusion protein; not shown: FLAG octapeptide (Eastman Kodak), N-terminal
T5 sequence (looked up): T4 chain

B1: MORT-1 (FADD), human, full-length (other, UniProt Q13158 1-208, looked up)
chain: T4 chain
notes: Gal4 hybrid in yeast; also expressed in mammalian cells; also called HF1
B2: human p55-IC (intracellular domain of human p55 TNF receptor, residues 206-426) (receptor, UniProt P19438 235-455, looked up)
chain: RYQRWKSKLYSIVCGKSTPEKEGELEGTTTKPLAPNPSFSPTPGFTPTLGFSPVPSSTFTSSSTYTPGDCPNFAAPRREVAPPYQGADPILATALASDPIPNPLQKWEDSAHKPQSLDTDDPATLYAVVENVPPLRWKEFVRRLGLSDHEIDRLELQNGRCLREAQYSMLATWRRRTPRREATLELLGRVLRDMDLLGCLEDIEEALCGPAALPPAPSLLR
notes: range 206-426; Gal4 hybrid in yeast; Numbering as printed; may count on the mature receptor; also called 206-426 p55; intracellular domain of human p55-R (CD120a)
B3: mouse Fas-IC (receptor, UniProt P25446 187-327, looked up)
chain: RKYRKRKCWKRRQDDPESRTSSRETIPMNASNLSLSKYIPRIAEDMTIQEAKKFARENNIKEGKIDEIMHDSIQDTAEQKVQLLLCWYQSHGKSDAYQDLIKGLKKAECRRTLDKFQDMVQKDLGKSTPDTGNENEGQCLE
notes: domain: intracellular domain
B4: mouse Fas-IC I225A (receptor, UniProt P25446 187-327, looked up)
chain: B3 chain with I60A
notes: domain: intracellular domain; Position as printed; may count on the mature receptor
B5: GST-mFas-IC (receptor, mouse, UniProt P25446 187-327, looked up)
chain: B3 chain
notes: domain: intracellular domain; Produced in E. coli, attached to glutathione beads; also called GST fusion with the mouse Fas-IC; not shown: glutathione S-transferase (GST) fusion partner
B6: mouse Fas-IC I225N (receptor, UniProt P25446 187-327, looked up)
chain: B3 chain with I60N
notes: domain: intracellular domain; The text says 'Ile to Leu' but labels the mutant I225N; Position as printed; may count on the mature receptor; also called lprcg mutation
B7: MORT-1 fragment residues 130-245 (MORT-1 DD) (other, human, UniProt Q13158 82-197, looked up)
chain: FEAGAAAGAAPGEEDLCAAFNVICDNVGKDWRRLARQLKVSDTKIDSIEDRYPRNLTERVRESLRIWKNTEKENATVAHLVGALRSCQMNLVADLVQEVQQARDLQNRSGAMSPMS
notes: Gal4 hybrid in yeast; expressed in HeLa cells for the cytotoxicity test; also called MORT 'tail'
B8: GST-huFas-IC (receptor, human, UniProt P25445 191-335, looked up)
chain: KRKEVQKTCRKHRKENQGSHESPTLNPETVAINLSDVDLSKYITTIAGVMTLSQVKGFVRKNGVNEAKIDEIKNDNVQDTAEQKVQLLRNWHQLHGKKEAYDTLIKDLKKANLCTLAEKIQTIILKDITSDSENSNFRNEIQSLV
notes: domain: intracellular domain; Produced in E. coli, attached to glutathione beads; also called GST fusion with the human Fas-IC; GST-Fas-IC; not shown: glutathione S-transferase (GST) fusion partner
B9: MACHβ1 (ORF-B of MACH) (other, human, UniProt Q14790-5 1-235, looked up)
chain: MDFSRNLYDIGEQLDSEDLASLKFLSLDYIPQRKQEPIKDALMLFQRLQEKRMLEESNLSFLKELLFRINRLDLLITYLNTRKEEMERELQTPGRAQISAYRVMLYQISEEVSRSELRSFKFLLQEEISKCKLDDDMNLLDIFIEMEKRVILGEGKLDILKRVCAQINKSLLKIINDYEEFSKERSSSLEGSPDEFSNDFGQSLPNEKQTSGILSDHQQSQFCKSTGESAQTSQH
notes: Gal4 hybrid in yeast; also expressed in mammalian cells (34 kDa); also called MACH B; MACH ORF-B
B10: MACHα1 (C360S) (enzyme)
chain: MDFSRNLYDIGEQLDSEDLASLKFLSLDYIPQRKQEPIKDALMLFQRLQEKRMLEESNLSFLKELLFRINRLDLLITYLNTRKEEMERELQTPGRAQISAYRVMLYQISEEVSRSELRSFKFLLQEEISKCKLDDDMNLLDIFIEMEKRVILGEGKLDILKRVCAQINKSLLKIINDYEEFSKERSSSLEGSPDEFSNGEELCGVMTISDSPREQDSESQTLDKVYQMKSKPRGYCLIINNHNFAKAREKVPKLHSIRDRNGTHLDAGALTTTFEELHFEIKPHDDCTVEQIYEILKIYQLMDHSNMDCFICCILSHGDKGIIYGTDGQEAPIYELTSQFTGLKCPSLAGKPKVFFIQASQGDNYQKGIPVETDSEEQPYLEMDLSSPQTRYIPDEADFLLGMATVNNCVSYRNPAEGTWYIQSLCQSLRERCPRGDDILTILTEVNYEVSNKDDKKNMGKQMPQPTFTLRKKLVFPSD
notes: Gal4 hybrid in yeast; also called MACHα(C360S)

Key:
[1] = test system: T1, Acetyl-Asp-Glu-Val-Asp-a-(4-Methyl-Coumaryl-7-Amide)
[2] = test system: T2, Acetyl-Tyr-Val-Ala-Asp-AMC
[3] = target: B2; assay: yeast two-hybrid beta-galactosidase test
Description: (§1) The interaction of the proteins encoded by the Gal4 DNA binding domain and activation-domain constructs (pGBT9 and PGAD-GH) within transfected SFY526 yeasts was assessed by β-galactosidase expression filter assay. […] The intracellular domains of human p55 TNF receptor (p55-IC residues 206-426), human CD40 (CD40-IC, residues 216-277) and human p75 TNF receptor (p75-IC, residues 287-461) as well as lamin, cyclin D and “empty” Gal4 (pGBT9) vectors served as negative controls in the form of DNA-binding domain constructs. SNF-1 and SNF4 served as positive controls in the form of DNA-binding-domain (SNF1) and activation-domain (SNF4) constructs. “Empty” Gal4 vectors (pGAD-GH) also served as negative controls in the form of activation domain constructs. The symbols “++” and “+” used in the presentation of the results of the above analysis denote the development of strong color within 30 and 90 min of the assay, respectively; and “−” denotes no development of color within 24 h.

[4] = target: T3, TRADD; assay: yeast two-hybrid screen of a human B cell library with MORT-1 as bait
[5] = target: T4, MORT-1 (FADD), human, full-length …; assay: yeast two-hybrid beta-galactosidase filter assay; activation-domain hybrid against DNA-binding-domain hybrid (row); +++ = strong color within 30 min; conditions: remark: other sources report otherwise
[6] = target: B9; assay: yeast two-hybrid beta-galactosidase filter assay
Description: (§2) Their interaction was assessed by a β-galactosidase expression filter assay as described in Boldin et al., (1995b). The results are presented in terms of the time required for the development of strong color. […] Except where otherwise indicated, all experimental procedures for the findings presented are as described above (see also Boldin et al., 1995).

[7] = target: T6, MACHα1 (human, UniProt Q14790 1-479); assay: yeast two-hybrid beta-galactosidase filter assay
T6 construct: also called CASP-8α1
Description: as §2

[8] = target: B10; assay: yeast two-hybrid beta-galactosidase filter assay
Description: as §2

[9] = target: B1; assay: yeast two-hybrid beta-galactosidase test
Description: as §1

[10] = target: T5, FLAG-MORT-1; assay: in vitro binding of 35S-labeled FLAG-MORT-1 from HeLa extracts to GST fusion on glutathione beads, SDS-PAGE and autoradiography
Description: Glutathione S-transferase (GST) fusions with the wild type or a mutated Fas-IC were produced and adsorbed to glutathione-agarose beads; see Boldin et al., 1995; Current Protocols in Molecular Biology, 1994; Frangioni and Neel, 1993). […] The extracts were prepared in a buffer containing 50 mM Tris-HCl, pH 7.5, 150 mM NaCl, 0.1% NP-40, 1 mM dithiotreitol, 1 mM EDTA, 1 mM phenylmethylsulfonyl fluoride, 20 μg/ml Aprotonin, 20 μg/ml Leupeptin, 10 mM sodium fluoride and 0.1 mM sodium vanadate (1 ml per 5×10⁵ cells).

[11] = target: T6, MACHα1; assay: yeast two-hybrid test
From the text: (§3) Except where otherwise indicated, all experimental procedures for the findings presented are as described above (see also Boldin et al., 1995).

[12] = target: B10; assay: yeast two-hybrid test
From the text: as §3

[13] = target: the molecule itself; assay: yeast two-hybrid beta-galactosidase filter assay; activation-domain hybrid against DNA-binding-domain hybrid (row); + = strong color within 90 min
Description: The DNA-binding domain constructs were prepared in pGBT9 vectors and the activation domain constructs were prepared in pGAD-GM vectors. […] In the assay, the development of color was determined, where the greater the color development, the greater the interaction between the constructs encoded by the DNA-binding domain and activation domain.

[14] = target: the molecule itself; assay: yeast two-hybrid test
From the text: as §3

## GST fusion of the CED3/ICE homology region of MACHα1 (Ser217 through the C-terminus)
[1]
  cleavage of fluorogenic peptide substrate (AMC release) by bacterial lysates: cleaved effectively the PARP sequence-derived fluorogenic substrate
[2]
  cleavage of fluorogenic peptide substrate (AMC release) by bacterial lysates: They had no measurable proteolytic activity, though, against the IL-1β-precursor sequence-derived fluorogenic substrate

## GST fusion of the full-length MACHα1
[1]
  cleavage of fluorogenic peptide substrate (AMC release) by bacterial lysates: did not cleave Ac-DEVD-AMC

## GST fusion of MACHα1 Asp374 through the C-terminus
[1]
  cleavage of fluorogenic peptide substrate (AMC release) by bacterial lysates: Nor did cleavage occur

## GST fusion of MACHα1 Ser217 till Asp374
[1]
  cleavage of fluorogenic peptide substrate (AMC release) by bacterial lysates: Nor did cleavage occur

## GST-fused MACH CED3/ICE-homology region with Cys360 replaced by Ser
[1]
  cleavage of fluorogenic peptide substrate (AMC release) by bacterial lysates: No cleavage was observed

## B1
[3]
  binding result: no binding
[4]
  binding result: binds
[5]
  time to development of strong color (beta-galactosidase filter assay, yeast two-hybrid): < 30 min

## B2
[6]
  binding result: no binding
[7]
  binding result: no binding
[8]
  binding result: no binding

## B3
[9]
  binding result: binds

## B4
[9]
  binding result: no binding

## B5
[10]
  binding result: binds

## B6
[9]
  binding result: no binding

## B7
[9]
  binding result: no binding

## B8
[10]
  binding result: binds

## B9
[11]
  binding result: binds
[12]
  binding result: binds
[13]
  binding result: binds

## B10
[14]
  binding result: binds
